{"source": "paper PMC11405395", "about": "(The EMBO Journal, 2024)", "settings_in_all_cases": "both partners purified", "key": {"[1]": {"target": "T1, DNA polymerase ε (Pol2, Dpb2, Dpb3, Dpb4), S. cerevisiae (S. cerevisiae, UniProt P21951 1-2222; P24482 1-689; P27344 1-201; Q04603 1-196)", "T1 construct": "Pol2, catalytic subunit of DNA polymerase ε, S. cerevisiae; Dpb2, second largest subunit of DNA polymerase ε, S. cerevisiae; Dpb3, subunit of DNA polymerase ε, S. cerevisiae; Dpb4, subunit of DNA polymerase ε, S. cerevisiae (DPB4-TEV-CBP); also called Polε; Pol ε; source: S. cerevisiae strain yAJ2, purified as previously described (Yeeles et al, 2015); copies: + + +", "test": "co-IP; purified proteins mixed: 10 nM FLAG-Rrm3 with 15 nM Pol ε, 10 min on ice; anti-FLAG M2 magnetic beads; 25 mM Hepes-KOH pH 7.6, 400 mM KOAc, 0.02% NP-40-S, 0.1 mg/mL BSA, 1 mM DTT, 10 mM Mg(OAc)2; immunoblotting"}, "[2]": {"target": "T2, CMGE (budding yeast CMG helicase, Cdc45-Mcm2-7-GINS, together with DNA polymerase ε) (S. cerevisiae, UniProt P29469 1-868; P24279 1-971; P30665 1-933; P29496 1-775; P53091 1-1017; P38132 …)", "T2 construct": "Mcm2, S. cerevisiae, subunit of CMG; Mcm3, S. cerevisiae, subunit of CMG (CBP-TEV-MCM3); Mcm4, S. cerevisiae, subunit of CMG; Mcm5, S. cerevisiae, subunit of CMG; Mcm6, S. cerevisiae, subunit of CMG; Mcm7, S. cerevisiae, subunit of CMG; Cdc45, S. cerevisiae, subunit of CMG (CDC45iFLAG2, internal FLAG tag; detected by anti-FLAG immunoblotting); Sld5, S. cerevisiae, GINS subunit of CMG …", "test": "co-IP; purified proteins mixed: 1–10 nM Rrm3/Rrm3N-BacPif1/BacPif1 with 15 nM CMG and 30 nM Pol ε, 10 min on ice; anti-Sld5 beads, 30 min 4 °C; 25 mM Hepes-KOH pH 7.6, 400 mM KOAc, 0.02% NP-40-S, 0.1 mg/mL BSA, 1 mM DTT, 10 mM Mg(OAc)2; immunoblotting"}, "[3]": {"target": "T3, GINS tetramer (Sld5, Psf1, Psf2, Psf3), S. cerevisiae (S. cerevisiae, UniProt Q03406 1-294; Q12488 1-208; P40359 1-213; Q12146 1-194)", "T3 construct": "Sld5, GINS subunit, S. cerevisiae; Psf1, GINS subunit, S. cerevisiae; Psf2, GINS subunit, S. cerevisiae; Psf3, GINS subunit, S. cerevisiae; pJL005 with TwinStrep-Psf3; also called tetrameric GINS complex; source: purified as previously described (Yeeles et al, 2015; Lewis et al, 2022); copies: + + +", "T3 sequence (looked up) 1": "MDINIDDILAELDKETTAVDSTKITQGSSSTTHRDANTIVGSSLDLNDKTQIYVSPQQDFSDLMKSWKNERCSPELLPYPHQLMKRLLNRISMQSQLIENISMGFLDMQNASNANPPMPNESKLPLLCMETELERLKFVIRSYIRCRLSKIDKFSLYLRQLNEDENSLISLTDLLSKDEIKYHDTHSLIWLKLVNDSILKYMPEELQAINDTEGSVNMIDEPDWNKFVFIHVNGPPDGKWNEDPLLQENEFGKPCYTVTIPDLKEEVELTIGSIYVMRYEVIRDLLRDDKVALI", "T3 sequence (looked up) 2": "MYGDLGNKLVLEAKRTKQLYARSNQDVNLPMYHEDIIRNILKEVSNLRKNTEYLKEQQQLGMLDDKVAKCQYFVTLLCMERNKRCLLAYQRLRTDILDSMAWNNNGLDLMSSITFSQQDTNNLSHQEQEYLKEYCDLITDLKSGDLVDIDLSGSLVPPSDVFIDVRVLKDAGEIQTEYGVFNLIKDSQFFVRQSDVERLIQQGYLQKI", "T3 sequence (looked up) 3": "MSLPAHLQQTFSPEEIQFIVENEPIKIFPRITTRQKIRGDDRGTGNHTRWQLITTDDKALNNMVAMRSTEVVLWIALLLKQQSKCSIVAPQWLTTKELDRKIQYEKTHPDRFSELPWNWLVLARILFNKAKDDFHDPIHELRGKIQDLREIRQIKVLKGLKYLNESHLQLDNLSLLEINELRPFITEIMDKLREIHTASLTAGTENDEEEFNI", "T3 sequence (looked up) 4": "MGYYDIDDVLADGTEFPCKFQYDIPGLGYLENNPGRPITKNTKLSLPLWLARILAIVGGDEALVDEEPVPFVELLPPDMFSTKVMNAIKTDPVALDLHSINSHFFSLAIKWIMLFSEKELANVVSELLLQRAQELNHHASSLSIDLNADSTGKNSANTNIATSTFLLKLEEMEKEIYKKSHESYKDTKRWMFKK", "test": "co-IP; purified proteins mixed: 10 nM FLAG-Rrm3 with 15 nM GINS, 10 min on ice; anti-FLAG M2 magnetic beads; 25 mM Hepes-KOH pH 7.6, 200 mM KOAc, 0.02% NP-40-S, 0.1 mg/mL BSA, 1 mM DTT, 10 mM Mg(OAc)2; immunoblotting"}}, "data": [{"binder": "Rrm3 (wild-type, FLAG-tagged) (enzyme, S. cerevisiae, UniProt P38766 1-723, looked up, Rrm3 Pif1-family 5'-3' DNA helicase, S. cerevisiae; helicase domain printed as residues 230-723; Gene codon optimised for expression; a TEV site lies between the 3FLAG tag and Rrm3; also called WT Rrm3; full-length Rrm3; source: S. cerevisiae strain yTDK9, purified (anti-FLAG M2 resin, HiTrap heparin); not shown: 3FLAG, N-terminal, kept) MFRSHASGNKKQWSKRSSNGSTPAASASGSHAYRQQTLSSFFMGCGKKSAAASKNSTTIIDLESGDEGNRNITAPPRPRLIRNNSSSLFSQSQGSFGDDDPDAEFKKLVDVPRLNSYKKSSRSLSMTSSLHKTASASTTQKTYHFDEDETLREVTSVKSNSRQLSFTSTINIEDSSMKLSTDSERPAKRSKPSMEFQGLKLTVPKKIKPLLRKTVSNMDSMNHRSASSPVVLTMEQERVVNLIVKKRTNVFYTGSAGTGKSVILQTIIRQLSSLYGKESIAITASTGLAAVTIGGSTLHKWSGIGIGNKTIDQLVKKIQSQKDLLAAWRYTKVLIIDEISMVDGNLLDKLEQIARRIRKNDDPFGGIQLVLTGDFFQLPPVAKKDEHNVVKFCFESEMWKRCIQKTILLTKVFRQQDNKLIDILNAIRYGELTVDIAKTIRNLNRDIDYADGIAPTELYATRREVELSNVKKLQSLPGDLYEFKAVDNAPERYQAILDSSLMVEKVVALKEDAQVMMLKNKPDVELVNGSLGKVLFFVTESLVVKMKEIYKIVDDEVVMDMRLVSRVIGNPLLKESKEFRQDLNARPLARLERLKILINYAVKISPHKEKFPYVRWTVGKNKYIHELMVPERFPIDIPRENVGLERTQIPLMLCWALSIHKAQGQTIQRLKVDLRRIFEAGQVYVALSRAVTMDTLQVLNFDPGKIRTNERVKDFYKRLETLK", "values": [{"measurement": "binding result", "setting": "[1]", "value": "binds"}, {"measurement": "binding result", "setting": "[2]", "value": "binds"}, {"measurement": "binding result", "setting": "[3]", "value": "binds"}]}, {"binder": "Rrm3-2E (Rrm3 K118E, R122E) (enzyme, S. cerevisiae, UniProt P38766 1-723, looked up, Built in the wild-type expression plasmid pTDK15 (pOO8); also called 3FLAG-TEV-RRM3-2E; source: S. cerevisiae strain yOO4, purified (anti-FLAG M2 resin, HiTrap heparin); not shown: 3FLAG, N-terminal, kept) MFRSHASGNKKQWSKRSSNGSTPAASASGSHAYRQQTLSSFFMGCGKKSAAASKNSTTIIDLESGDEGNRNITAPPRPRLIRNNSSSLFSQSQGSFGDDDPDAEFKKLVDVPRLNSYEKSSESLSMTSSLHKTASASTTQKTYHFDEDETLREVTSVKSNSRQLSFTSTINIEDSSMKLSTDSERPAKRSKPSMEFQGLKLTVPKKIKPLLRKTVSNMDSMNHRSASSPVVLTMEQERVVNLIVKKRTNVFYTGSAGTGKSVILQTIIRQLSSLYGKESIAITASTGLAAVTIGGSTLHKWSGIGIGNKTIDQLVKKIQSQKDLLAAWRYTKVLIIDEISMVDGNLLDKLEQIARRIRKNDDPFGGIQLVLTGDFFQLPPVAKKDEHNVVKFCFESEMWKRCIQKTILLTKVFRQQDNKLIDILNAIRYGELTVDIAKTIRNLNRDIDYADGIAPTELYATRREVELSNVKKLQSLPGDLYEFKAVDNAPERYQAILDSSLMVEKVVALKEDAQVMMLKNKPDVELVNGSLGKVLFFVTESLVVKMKEIYKIVDDEVVMDMRLVSRVIGNPLLKESKEFRQDLNARPLARLERLKILINYAVKISPHKEKFPYVRWTVGKNKYIHELMVPERFPIDIPRENVGLERTQIPLMLCWALSIHKAQGQTIQRLKVDLRRIFEAGQVYVALSRAVTMDTLQVLNFDPGKIRTNERVKDFYKRLETLK", "values": [{"measurement": "binding result", "setting": "[1]", "value": "binds"}, {"measurement": "binding result", "setting": "[2]", "value": "binds"}]}]}
